To fix the notation:
B1: Ab-D (antibody, V domains shown)
VH: QVQLVQSGAEVKKPGSSVKVSCKASGGTFSSTYISWVRQAPGQGLEWMGWIYAGTGGTRYNRKFTGRVTITADESTSTAYMELSSLRSEDTAVYYCAREGVDGWFTYWGQGTLVTVSS
VL: DIQMTQSPSSLSASVGDRVTISCRASESVDNYGSSFMNWYQQKPGKAPKLLIYAASNQGSGVPSRFSGSGSGTDFTLTISSLQPEDFATYYCQQSKEVPYTFGQGTKLEIKR
notes: Humanized Ab-C, human kappa / human IgG2
B2: Ab-O (antibody, human IgG2, V domains shown)
VH: B1 VH
VL: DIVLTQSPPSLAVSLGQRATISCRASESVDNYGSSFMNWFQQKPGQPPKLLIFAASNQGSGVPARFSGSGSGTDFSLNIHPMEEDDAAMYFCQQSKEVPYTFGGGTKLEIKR
notes: Human IgG2 heavy chain
B3: Ab-B (antibody, V domains shown)
VH: QVQLVQSGAEVKKPGASVKVSCKASGYTFTTYGMSWVRQAPGQGLEWMGWINTYSGVPTYADDFKGRFVFSLDTSVSTAYLQINSLKAEDTAVYYCARGREYYYGSGIAFWGQGTLVTVSS
VL: DVVMTQSPLSLPVTLGQPASISCRSSQSLEHSNGNTYLHWYLQKPGQSPQLLIYKVSNRFSGVPDRFSGSGSGTDFTLKISRVEAEDVGVYFCSQSTHVPLTFGGGTKVEIKR
notes: Humanized Ab-A, human kappa / human IgG2
B4: Ab-G (antibody, human IgG2, kappa, V domains shown)
VH: B3 VH with R38K, Y95F, A97V
VL: B3 VL
notes: as for B3
B5: light chain of SEQ ID NO: 110 paired with the heavy chain of SEQ ID NO: 24 (antibody, human IgG2, lambda, V domains shown)
VH: B1 VH
VL: QSVLTQPPSVSGAPGQRVTISCTGGSSNIGAGYEVHWYQLVPGRAPRFLIHGDNDRPSGVPDRFSASESGSSSFLAISGLQDDDEADYYCQSYDTSLSAWVFGGGTKLTVLG
B6: Ab-1 (antibody, human IgG2, lambda, V domains shown)
VH: B1 VH
VL: QSVVTQPPSVSGAPGQRVTMSCTGSSSNLGAGYDVNWYQQLPGKAPKVLIYGNEIRPSGVPDRFSGSKSDTSATLDITGLQTGDEADYYCETWDSSLSTVVFGGGTKLTVLG
notes: Phage-derived human light chain with the humanized Ab-C IgG2 heavy chain, transiently expressed in 293 6E cells
B7: light chain of SEQ ID NO: 114 paired with the heavy chain of SEQ ID NO: 24 (antibody, human IgG2, kappa, V domains shown)
VH: B1 VH
VL: NIQMTQSPGTLSLSPGERATLSCRASQSVTGNHLAWYQQKPGQAPRVLMYDTSSRATGIPDRFSGSGSGTDFTLTISSLQPEDIATYYCQQFDNLPYTFGQGTKLEIKR
B8: light chain of SEQ ID NO: 116 paired with the heavy chain of SEQ ID NO: 24 (antibody, human IgG2, kappa, V domains shown)
VH: B1 VH
VL: DIQMTQSPSSLSASVGDRVTITCRASRDISVYVNWYQLKPGQAPRLLIYGASNLGFGVPSRFSGSGYGTDFALTISGLQPEDFATYSCQQSYSIPLTFGQGTRVDTKR
B9: Ab-16 (antibody, human IgG2, kappa, V domains shown)
VH: B1 VH
VL: DIQLTQSPFSLSASVGDRVTITCRASQSINDNLNWYLQKPGKAPKLLIFAASTSQSGVPSRFSGNGFGTDFSLIISGLQPEDVGTYYCQQNDSMPFTFGQGTRLDIKR
notes: Phage-derived human light chain with the humanized Ab-C IgG2 heavy chain
B10: Ab-24 (antibody, human IgG2, kappa, V domains shown)
VH: B1 VH
VL: ETTLTQSPALLSLSPGERATLSCRASQTLSFDFFAWYQQKPGQAPSLLISGISTRAAGVPDRFSGSGSGTDFTLTIDRLEPEDFAVYFCQQSSSLPLTFGGGTKVEIRR
notes: as for B9
B11: Ab-48 (antibody, human IgG2, kappa, V domains shown)
VH: B1 VH
VL: DIQMTQSPSSLSASIGDRVTITCQASQDINNYLNWYQQKQGKAPKVLIFDASNLAAGVPSRFSGSGSGTDFTLTISSLQPEDIATYYCQQYDNLPLTFGQGTKVDNKR
notes: as for B9
B12: light chain of SEQ ID NO: 120 paired with the heavy chain of SEQ ID NO: 24 (antibody, human IgG2, kappa, V domains shown)
VH: B1 VH
VL: DIQMTQSPATLSLSPGERATLSCRASRSVSSNLAWYQQKPGRAPRLLMFGASTRATGVPARFSGSGSGTEFTLTISSLQSEDVATYYCQHDNELPLTFGGGTKVELKR
B13: Ab-29 (antibody, human IgG2, kappa, V domains shown)
VH: B1 VH
VL: DIQMTQSPLSLSASVGDRVAITCRASQSISDSLNWYQQKPGKPPKIVIYAASGLPSGVPSRFSGGGSGTDFTLVISTLQPEDFATYYCQQSYSAPLTFGGGTKVEISR
notes: as for B9
B14: light chain of SEQ ID NO: 108 paired with the heavy chain of SEQ ID NO: 24 (antibody, human IgG2, kappa, V domains shown)
VH: B1 VH
VL: DIQMTQSPSSLSASVGDRITISCQASQDIDNYLNWYQQKSGKAPKLLIYDAYNLKAGVPSRFRGSRSGTDFFLTISSLQPEDFATYYCLQQYRYPLTFGGGTKVEIKR
B15: light chain of SEQ ID NO: 112 paired with the heavy chain of SEQ ID NO: 24 (antibody, human IgG2, kappa, V domains shown)
VH: B1 VH
VL: DIQMTQSPGTLSLSPGERATLSCRTSQSVSSTSVAWYQQKPGQAPRLLMYDASSRAAGIPDRFSGSGSVTDFTLTISRLEPEDFATYYCQQSYSLPYTFGQGTKVEIKR
B16: Ab-63 (antibody, human IgG2, lambda, V domains shown)
VH: B1 VH
VL: QSALTQTPSVSGTPGQRVTISCTGSRSNIGAGYDVQWYQQFPGTAPRLLIYANNIRSSGVPDRFSGSKSGTSASLAITGLQAEDEATYYCQSYDRSLSGYVFGTGTEVTVVG
notes: as for B9
B17: light chain of SEQ ID NO: 106 paired with the heavy chain of SEQ ID NO: 24 (antibody, human IgG2, lambda, V domains shown)
VH: B1 VH
VL: NFMLTQPHSVSESPGKTITISCTRSSGSISSNYVQWYQQRPGSSPRIVMSEDDQRPSGVSDRFSGSIDISSNSAFLTISGLKPEDEGDYYCQSYDTDIPYVFGTGTKVTVLG
B18: Ab-28 (antibody, human IgG2, kappa, V domains shown)
VH: B1 VH
VL: DIQMTQSPSSLSASVGDRVTITCRASQSISDYLNWYQQRPGKAPNLLIFASNTLQGGVPSRFRGSGSGTDFTLTINSLQHEDFGTYYCQQSYRTPLTFGGGTKVEIKR
notes: as for B9
B19: Ab-13 (antibody, human IgG2, kappa, V domains shown)
VH: B1 VH
VL: DIQMTQSPSSLSASVGDRVTITCRASQSISEYLNWYQQKPGQAPRLLIYGVSTRATGIAARFSGSGSGTDFTLTISSLQPEDSAVYYCQQDYNVPYTFGQGTKLEIKR
notes: as for B9
B20: Ab-60 (antibody, human IgG2, lambda, V domains shown)
VH: B1 VH
VL: QSVVTQPPAVSGAPGQRITISCTGSSSNIGAGYDVHWYQQFPGTAPKVLIFANDYRPSGVPDRFSASKSATSASLAIRGLQSEDEADYYCQSYDNRLSGYVFGTGTKVTVLG
notes: as for B9
B21: light chain of SEQ ID NO: 104 paired with the heavy chain of SEQ ID NO: 24 (antibody, human IgG2, lambda, V domains shown)
VH: B1 VH
VL: NFMLTQPHSVSESPGKTVTISCTRNSGSIASNYVQWYQQRPGSSPATVIYEDNQRPSGVPDRFSGSIDISSNSASLTISGLKTEDEADYYCQSYDSSNPFYVFGTGTKVTVLG
notes: as for B9
B22: Ab-18 (antibody, human IgG2, kappa, V domains shown)
VH: B1 VH
VL: DIQLTQSPSSLSASVGDRVTITCQASQDINNYLSWYQQKPGKAPKVLIYDTSNLETGVPSRFSGSGSGTDFTFTISSLQPEDIATYYCQQSDNLPYTFGQGTKLEIKR
notes: as for B9
B23: Ab-66 (antibody, human IgG2, lambda, V domains shown)
V domain 1: QSVVTQPPSVSGAPGQRVTISCTGSSSNIGAGYDVHWYQQLPGAAPKVLIFGNNNRPSGIPDRVSGSKSGTSASLAISGLQTEDEAVYYCQSYDSSLSAYVFGGGTQVTVLG
V domain 2: B1 VH
notes: as for B9
B24: Ab-65 (antibody, human IgG2, lambda, V domains shown)
VH: B1 VH
VL: QSVLTQPPSVSGAPGQRVTISCTGSSSNIGAGYDVHWYQQLPRTAPKLLIYGDTNRPSGVPDRFSGSKSGTSASLAITGLQTEDEADYYCQSYDSSLRAYVFGTGTKVTVLG
notes: as for B9
B25: Ab-23 (antibody, human IgG2, kappa, V domains shown)
VH: B1 VH
VL: DIQMTQSPGTLSLSPGERATLFCRASQRVSSSYLAWYQQRPGQAPRLLMYGTSSWATGIPDRFSGSGSGTDFTLTISSLQPEDFATYYCQQSSSIPYTFGQGTKLEIKR
notes: as for B9
B26: Ab-62 (antibody, human IgG2, lambda, V domains shown)
VH: B1 VH
VL: QAVLTQPSSVSGAPGRRVTISCTGSSSNIGAGYDVHWYQQLPGKAPKLVISANTNRPSGVPDRFSGSKSGTSASLAITGLQAEDEADYYCQSYDNSVSAYVFGTGTKVTVLG
notes: as for B9
B27: light chain of SEQ ID NO: 118 paired with the heavy chain of SEQ ID NO: 24 (antibody, human IgG2, kappa, V domains shown)
VH: B1 VH
VL: B14 VL with S9D, K39R, A84G, Y92S, R93S, G100Q

Residue numbers refer to the chain shown, from its start.

The target of one test is T1, human WISE (human, UniProt Q6X4U4 24-206).
T1 construct: Recombinant, made in E. coli or mammalian cells; biotinylated in the ELISAs, amine-coupled to CM5 in Biacore; also called huWise; huWISE
T1 sequence: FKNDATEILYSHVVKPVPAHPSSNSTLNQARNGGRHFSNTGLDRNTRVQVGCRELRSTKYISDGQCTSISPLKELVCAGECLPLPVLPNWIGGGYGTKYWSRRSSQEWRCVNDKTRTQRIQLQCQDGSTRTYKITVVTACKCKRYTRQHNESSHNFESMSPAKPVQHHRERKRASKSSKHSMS
The test can be described thus: ELISA, antibody coated, biotinylated human WISE titrated. A general note: ELISA stands for enzyme-linked immunosorbent assay.
Take B1: the binding result is listed as “binds”.

Turning to B2, the binding result is given as “binds”.

Take B3: the binding result was “binds”.

Take B4: the binding result is “binds”.

The target in the next test is T1, human WISE. The test can be described thus: assay not specified (IgG2 from transient transfection).
As for B5, the binding result is “binds”.

On to B6, for which the binding result is “binds”.

On to B7, for which the binding result was “binds”.

As for B8, the binding result is “binds”.

Turning to B9, the binding result is given as “binds”.

For the molecule B10, the binding result was “binds”.

As to B11, the binding result is recorded as “binds”.

With B12, the binding result is listed as “binds”.

In the case of B13, the binding result was “binds”.

With B14, the binding result is listed as “binds”.

As for B15, the binding result is on record as “binds”.

In the case of B16, the binding result is reported as “binds”.

B17: the binding result is listed as “binds”.

For the molecule B18, the binding result is on record as “binds”.

In the case of B19, the binding result is recorded as “binds”.

Turning to B20, the binding result is “binds”.

As for B21, the binding result was “binds”.

As to B22, the binding result was “binds”.

Take B23: the binding result was “binds”.

Turning to B24, the binding result is reported as “binds”.

Regarding B25, the binding result was “binds”.

For the molecule B26, the binding result was “binds”.

B27: the binding result is listed as “binds”.

For the origin of these results see patent publication US20090130114A1 (Amgen, published 2009).
